To fix the notation:
B1: OR4K15 (parent)
chain: GUUAACGGUCAUAGGCCAUGGAAACUAGGAGCACCAUUUCGCUGCCAGUGAAGAAAUGAACAAAGAAAAUCUGGGCCAGGCAGGCAUCAAAAGAAAUAGUCUUGCGCUCAACCAGAAAGUCUGUAAUCAUUUUAAGGGUA

Variants of B1 are the subject of this series. Kind of series: self-cleavage, relative activity (ratio to wild type); higher = more cleavage; in vitro, sequencing; the parent is a self-cleaving ribozyme.
As for U100G A126G, the self-cleavage amounted to 1.02.
Next, U103G U122C: 0.01; A98G U139G: 0.86; A98G U139C: 0.5.
With U97C A125G, the self-cleavage came out at 0.31.
Next, C105U A116G: 0.03; U97A A98U: 2.29; A98U A111G: 0.01.
As for G99A U102A, the self-cleavage is 0.1.
As for G104A A126G, the figure is 0.02; as for G104A A126U, 0.09; as for G99U A129G, 0.13.
On to U108C A110U, for which the self-cleavage stood at 0.01.
For the variant U97A A117G, the self-cleavage was determined as 2.09.
Turning to U100C U139C, the self-cleavage worked out at 2.29.
For U100C U139A, the self-cleavage is 2.28.
Regarding U108A A118G, the self-cleavage is 0.
With C107U A134G, the self-cleavage was determined as 0.03.
For the variant U108C C128G, the self-cleavage worked out at 0.01.
Consider G106A U127A, for which the self-cleavage came out at 0.01.
For G106U A118G, the self-cleavage stood at 0.02.
In the case of A96U U102C, the self-cleavage came out at 2.54.
In the case of A96U U102A, the self-cleavage is 1.08.
Consider C101U A118G, for which the self-cleavage was 0.02.
Next, C107A U122C: 0.01; A98U U131C: 2.12.
Take U100C A114G: the self-cleavage amounted to 1.34.
For the variant U100C A114U, the self-cleavage stood at 0.16.
Regarding U103A A134U, the self-cleavage stood at 0.87.
On to U103A A134G, for which the self-cleavage was 0.27.
Consider C105A A134G, for which the self-cleavage was 0.05.
Take C105U A114G: the self-cleavage amounted to 0.07.
Consider C107U A111G, for which the self-cleavage worked out at 0.
As for U102C U120C, the self-cleavage was found to be 2.34.
For U103A A116G, the self-cleavage amounted to 0.14.
Next, A96U U132G: 1.55.
U108C U120C: the self-cleavage was 0.01.
Next, U108C U120A: 0.01; G99A U131C: 0.42.
Next, C109A U127C: 0.17; G99A U120C: 0.26; U103C A140U: 1.14.
Next, G106A G136U: 0.04; G106C A118G: 0; G99A C113U: 0.05.
As to G106A U130C, the self-cleavage worked out at 0.01.
Regarding U108G U139C, the self-cleavage is 0.
Regarding U100A C113U, the self-cleavage came to 0.11.
As for U102C A111G, the figure is 0.01; as for G99A A117G, 0.36.
As for U108A G123A, the figure is 0.01.
For the variant U108A U124C, the self-cleavage turned out to be 0.01.
For A98G A116G, the self-cleavage is 0.12.
With C105G A135G, the self-cleavage amounted to 0.03.
A96U A118G: the self-cleavage was determined as 1.17.
Regarding U108A A117G, the self-cleavage is 0.02.
In the case of U102A A135U, the self-cleavage is 0.49.
G104U A114U: the self-cleavage amounted to 0.02.
Next, A98U U122C: 2.
On to A98C A117G, for which the self-cleavage turned out to be 2.47.
For the variant U102C U133C, the self-cleavage turned out to be 2.27.
Take U102C U133G: the self-cleavage was found to be 2.02.
Next, U97C A111G: 0.02.
Next, U97C A111U: 0.07.
For U97C G123A, the self-cleavage turned out to be 1.14.
For the variant U108A A111G, the self-cleavage was determined as 0.01.
As for U100C C105U, the figure is 0.33; as for U103A U108A, 0.02; as for U100C A118G, 1.11.
Consider U100C A118U, for which the self-cleavage was found to be 0.77.
In the case of U100C G123U, the self-cleavage was determined as 2.81.
U100C G123A: the self-cleavage is 2.36.
Take U102A U108A: the self-cleavage amounted to 0.02.
On to U100C U132C, for which the self-cleavage worked out at 2.14.
Regarding U103A G137A, the self-cleavage stood at 0.85.
For U97C U103C, the self-cleavage was determined as 0.58.
As for U108A U127A, the figure is 0.03; as for U103C G104A, 0.02.
For U97C U120A, the self-cleavage came to 0.31.
Next, U100C A140G: 2.28; U100C A140U: 2.24; U108A A116U: 0.02.
On to G106U U132A, for which the self-cleavage amounted to 0.03.
Regarding U97C A98C, the self-cleavage was determined as 0.75.
As to C107G A118G, the self-cleavage was 0.01.
As for U108C A134G, the figure is 0.07.
On to U97G U127C, for which the self-cleavage was 0.49.
Consider U103C U132C, for which the self-cleavage stood at 0.85.
In the case of A98G A125G, the self-cleavage was determined as 0.13.
In the case of A98G U127C, the self-cleavage turned out to be 0.39.
Take U108C A111C: the self-cleavage amounted to 0.01.
Regarding U108C A111U, the self-cleavage came to 0.
As for U108C A111G, the self-cleavage was determined as 0.01.
As for C101U U120A, the self-cleavage is 0.4.
Take U102A U131C: the self-cleavage turned out to be 0.62.
Next, C109A A114G: 0.11; U108C U127C: 0.01; U108C U127A: 0.01.
As for C107U U130C, the figure is 0; as for U102C U131C, 2.13.
On to C109U A135G, for which the self-cleavage worked out at 0.38.
Take U103G U131C: the self-cleavage turned out to be 0.01.
On to A98G G104A, for which the self-cleavage stood at 0.01.
Take U97A A125G: the self-cleavage is 0.86.
Consider G99A U130C, for which the self-cleavage worked out at 0.13.
Take A96U U130C: the self-cleavage came to 1.13.
Regarding U100C A129U, the self-cleavage is 1.49.
As for U100C A110C, the figure is 1.12; as for U100C A110G, 0.32; as for U108A A126G, 0.01.
A98G G99U: the self-cleavage is 1.42.
With G104A U122C, the self-cleavage was found to be 0.02.
Take U102G A126G: the self-cleavage turned out to be 0.69.
As for A96U A129G, the figure is 1.36.
As for A96G U130C, the self-cleavage came to 0.97.
As to U108C A118C, the self-cleavage was found to be 0.
As for U100C A116G, the figure is 1.32; as for U100C A116C, 0.97.
In the case of U102C A129G, the self-cleavage came to 1.74.
Next, U97C U122C: 1.21.
Take U103G U127C: the self-cleavage turned out to be 0.
As for A98G A126G, the figure is 0.34.
For U97A U131C, the self-cleavage turned out to be 1.62.
For A96U G138U, the self-cleavage is 1.75.
For U108A U131C, the self-cleavage worked out at 0.01.
As for A98G A129U, the self-cleavage is 0.3.
A98G A129G: the self-cleavage turned out to be 0.17.
For U100A U124C, the self-cleavage stood at 0.18.
As to U103C U133C, the self-cleavage was 1.32.
For the variant A96U G106A, the self-cleavage was found to be 0.01.
In the case of A96U A125G, the self-cleavage is 0.61.
On to A96G U124C, for which the self-cleavage came to 1.22.
As for G106C, the figure is 0.01; as for G106A, 0.01; as for G106U, 0.01.
On to U102A U103A, for which the self-cleavage was 0.12.
Turning to U108C U130C, the self-cleavage was found to be 0.01.
For U108C U130G, the self-cleavage was found to be 0.
As to U100C A134U, the self-cleavage was 2.45.
As for A98G U122A, the self-cleavage came to 0.57.
As for A98G U122C, the self-cleavage turned out to be 0.34.
Next, U108C A140G: 0.01; U100C U108C: 0.01; C105A U124A: 0.02.
For the variant U102C U132C, the self-cleavage was found to be 2.04.
Turning to U102G U130A, the self-cleavage stood at 0.29.
For the variant U97C U130A, the self-cleavage worked out at 0.78.
As to U103A U124C, the self-cleavage was 0.07.
Take U97A U139A: the self-cleavage was 1.2.
Consider C101U U127A, for which the self-cleavage worked out at 0.45.
In the case of U108C A125G, the self-cleavage turned out to be 0.
For A98G U108C, the self-cleavage worked out at 0.
Take U102A A111G: the self-cleavage was found to be 0.03.
For U103A A111G, the self-cleavage was found to be 0.01.
For the variant U108A A114G, the self-cleavage is 0.02.
A96U C113U: the self-cleavage worked out at 0.04.
In the case of A96U U97C, the self-cleavage came to 1.9.
On to U103A U122C, for which the self-cleavage turned out to be 0.35.
For U102A A129U, the self-cleavage stood at 0.31.
As for U102C G123C, the figure is 1.33; as for U102C G123A, 2.17.
On to U97C A114G, for which the self-cleavage turned out to be 0.13.
Take U102C A114U: the self-cleavage was 0.11.
Regarding U102C A114G, the self-cleavage stood at 0.68.
On to G99A A111G, for which the self-cleavage stood at 0.02.
With G99A U132A, the self-cleavage is 0.23.
Take C109A A118G: the self-cleavage stood at 0.32.
